Experimental data as given in patent US20220323598A1 (NATIONAL UNIVERSITY CORPORATION TOKAI NATIONAL HIGHER …, published 2022).

How the values were obtained:
[1] = molecular target: T1, human ROR1 protein (GenBank accession No. NP_005003.2) (human, UniProt Q01973 30-937); experiment: flow cytometry on NCI-H358 cells, relative affinity
T1 construct: whole, on cells; also called hROR1; endogenous human ROR1
Procedure: To inspect response of the antibodies obtained as described above to an endogenous human ROR1, response to an ROR1 high expressing cell NCI-H358 (ATCC accession No. CRL-5807) line was observed as below. The antibodies were purified from the culture supernatant of each hybridoma clone by a general affinity purification method using Protein A-Sepharose, respectively. The obtained purified antibodies were analyzed for the average fluorescence intensity of flow cytometry under the same condition (the same number of NCI-H358 (1×10⁵), the same concentration of respective purified antibodies, and the same concentration of secondary (detected) antibodies). Further, data was acquired also for the average fluorescence intensity that depends on the antibody concentration, the detection limit at a low concentration was analyzed, and thereby relative affinity was evaluated. FIG. 2 to FIG. 4 illustrate the results in a form of graphs. The horizontal axis of each graph represents the used antibody concentration (ng/mL), and the vertical axis represents the average fluorescence intensity (MFI) in flow cytometry. FIG. 2A is a diagram illustrating the response of anti-human ROR1 antibodies to ROR1 expressing cells of acquired monoclonal antibodies (2 AM series and 2AC series). […]

[2] = molecular target: T1, human ROR1 protein (GenBank accession …); experiment: flow cytometry, Alexa Fluor 488 labeled antibody at 1 µg/ml on ROR1 high (NCI-H1975, PC-9) and ROR1 low (A427, NCI-H460) expressing cell lines
Excerpt: To inspect response of antibodies obtained as described above to an endogenous human ROR1, the response to the ROR1 high expressing cell line (NCI-H1975, PC-9) and the ROR1 low expressing cell line (A427, NCI-H460) was observed as follows. Note that NCI-H1975 (ATCC accession No. CRL-5908), A427 (ATCC accession No. HTB-53), and NCI-H460 (ATCC accession No. HTB-177) were purchased from American Type Culture Collection. The PC-9 cell line (RCB 4455) was obtained from RIKEN cell bank. Various cell lines were seeded on 6-well dishes to have 2×10⁵/well, cultured at 37 degrees Celsius for 24 hours, and collected after PBS washing. After chimerized antibodies labeled by using Alexa Fluor (registered trademark) 488 Antibody Labeling Kit (Thermo Fisher Scientific; A20181) were diluted to 1 μg/ml and reacted on ice for one hour, the resultant was washed with a PBS, and the reaction intensity was analyzed by flow cytometry. […] FIG. 6 illustrates graphs indicating the response of chimerized antibodies to the ROR1 high expressing cell line and the ROR1 low expressing cell line.

T1 sequence (Q01973 30-937): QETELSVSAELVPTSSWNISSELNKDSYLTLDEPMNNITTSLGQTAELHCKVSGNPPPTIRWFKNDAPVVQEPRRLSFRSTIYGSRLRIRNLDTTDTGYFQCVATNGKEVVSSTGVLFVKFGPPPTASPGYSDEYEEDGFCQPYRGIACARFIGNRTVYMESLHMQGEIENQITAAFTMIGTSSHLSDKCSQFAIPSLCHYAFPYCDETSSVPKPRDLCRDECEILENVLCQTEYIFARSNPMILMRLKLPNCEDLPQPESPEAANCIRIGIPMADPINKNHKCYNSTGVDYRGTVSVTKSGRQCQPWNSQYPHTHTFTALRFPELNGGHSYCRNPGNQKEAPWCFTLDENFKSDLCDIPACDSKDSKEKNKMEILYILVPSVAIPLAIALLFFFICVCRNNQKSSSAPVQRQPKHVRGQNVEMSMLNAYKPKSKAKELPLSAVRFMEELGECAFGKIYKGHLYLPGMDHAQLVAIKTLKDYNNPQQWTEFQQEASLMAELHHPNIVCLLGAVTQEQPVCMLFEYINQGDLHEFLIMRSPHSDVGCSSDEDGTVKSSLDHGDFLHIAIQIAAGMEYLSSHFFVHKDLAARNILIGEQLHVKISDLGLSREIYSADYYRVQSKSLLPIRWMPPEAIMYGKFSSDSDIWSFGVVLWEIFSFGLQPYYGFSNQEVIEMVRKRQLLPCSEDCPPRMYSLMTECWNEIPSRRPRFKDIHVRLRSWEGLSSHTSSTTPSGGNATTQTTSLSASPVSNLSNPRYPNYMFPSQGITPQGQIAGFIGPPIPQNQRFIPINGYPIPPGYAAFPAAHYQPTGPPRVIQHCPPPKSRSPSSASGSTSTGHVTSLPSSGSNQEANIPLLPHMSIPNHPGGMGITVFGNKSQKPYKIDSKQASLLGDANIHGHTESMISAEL

| Binder | binding result [1] | binding result [2] |
| --- | --- | --- |
| 6AM_120-2 (antibody, mouse IgG1, V domains shown, VH was cloned with a mouse IgG1 CH1 primer and VL with a kappa constant region primer) VH: EIQLQQSGAELVKPGASVKISCKASGYSFTGYNMNWVKQSHGKSLEWIGNINPYYGNTSYNQKFKGKATLTVDKSSSTAYMQLNSLTSEDSAVYYCAREGFEYFDYWGQGTTLTVSS VL: DIQMTQSPASLSASVGETVTITCRASENIYSYLAWYQQKQGKSPQLLVYNVKTLAEGVPSRFSGSGSGTQFSLKINSLQPEDFGSYYCQHHYGIPYTFGSGTKLEIK | binds |  |
| chimeric antibody M3 (antibody, human IgG1, V domains shown, Mouse VH and VL of 6AM_120-2 in a vector carrying the human IgG1 constant region; also called chimerized antibody obtained from clone 6 AM_120-2) VH: EIQLQQSGAELVKPGASVKISCKASGYSFTGYNMNWVKQSHGKSLEWIGNINPYYGNTSYNQKFKGKATLTVDKSSSTAYMQLNSLTSEDSAVYYCAREGFEYFDYWGQGTTLTVSS VL: DIQMTQSPASLSASVGETVTITCRASENIYSYLAWYQQKQGKSPQLLVYNVKTLAEGVPSRFSGSGSGTQFSLKINSLQPEDFGSYYCQHHYGIPYTFGSGTKLEIK |  | binds |

Other lines, results leading:

| binding result [1] | binding result [2] | Binder |
| --- | --- | --- |
| binds |  | 2DC_5-2 (antibody, mouse IgG1, V domains shown, VH was cloned with a mouse IgG1 CH1 primer and VL with a kappa constant region primer; also called clone 2DC_5-2) VH: EVKLVESGGGLVKPGGSLKLSCAASGFTFSSYAMSWVRQTPEKRLEWVAAINTKGGSTYYPDTVKDRFTISRDNAKNILYLQMSSLRSEDTALYYCARHEPVYDYAMDYWGQGTSVTVSS VL: DIKMTQSPSSMYASLGERVTITCKASQDINSYLSWFQQKPGKSPKTLIYRANRLVDGVPSRFSGSGSGQDYSLTISSLECGDMGIYYCLQYDEFPYTFGGGTKLEIK |
|  | binds | chimeric antibody M1 (antibody, human IgG1, V domains shown, Mouse VH and VL of 2DC_5-2 in a vector carrying the human IgG1 constant region; also called chimerized antibody obtained from clone 2DC_5-2) VH: EVKLVESGGGLVKPGGSLKLSCAASGFTFSSYAMSWVRQTPEKRLEWVAAINTKGGSTYYPDTVKDRFTISRDNAKNILYLQMSSLRSEDTALYYCARHEPVYDYAMDYWGQGTSVTVSS VL: DIKMTQSPSSMYASLGERVTITCKASQDINSYLSWFQQKPGKSPKTLIYRANRLVDGVPSRFSGSGSGQDYSLTISSLECGDMGIYYCLQYDEFPYTFGGGTKLEIK |
